Reference: the supplement of paper PMC9112550, “Optimization of the antimicrobial peptide Bac7 by deep mutational scanning” (BMC Biology, 2022)

These sequences were tested on Escherichia coli TOP10 (assay: shrunken log2 fold change of peptide-encoding DNA abundance (4.5 h post-induction vs induction); higher = less antimicrobial activity (less host growth inhibition)). Conditions: time post-induction: 4.5 h; library: site-saturation at positions 5, 18, 19, 20.
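Further: peptides expressed intracellularly from a pBAD plasmid library in pooled LB shake-flask culture, induced with 0.3% L-arabinose, DNA abundance read by NGS, three biological replicates, DESeq2 with apeglm shrinkage.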

Row | Sequence | shrunken log2 fold change
1 | RRIRWRPPRLPRPRPRPCGHPRP | 0.108
2 | RRIRLRPPRLPRPRPRPINGPRP | 0.015
3 | RRIRVRPPRLPRPRPRPHCEPRP | -0.0141
4 | RRIRRRPPRLPRPRPRPSNTPRP | -0.172
5 | RRIRPRPPRLPRPRPRPMCAPRP | 0.159
6 | RRIRYRPPRLPRPRPRPDHWPRP | -0.166
7 | RRIRLRPPRLPRPRPRPKYPPRP | 0.0464
8 | RRIRRRPPRLPRPRPRPINIPRP | -0.256
9 | RRIRGRPPRLPRPRPRPFCSPRP | 0.143
10 | RRIRQRPPRLPRPRPRPKDKPRP | -0.386
11 | RRIRPRPPRLPRPRPRPWFGPRP | -0.0238
12 | RRIRDRPPRLPRPRPRPHHIPRP | -0.361
13 | RRIRSRPPRLPRPRPRPATCPRP | -0.154
14 | RRIRVRPPRLPRPRPRPNEYPRP | -0.487
15 | RRIRERPPRLPRPRPRPPPNPRP | 0.451
16 | RRIRSRPPRLPRPRPRPMNDPRP | -0.075
17 | RRIRVRPPRLPRPRPRPANTPRP | -0.0315
18 | RRIRNRPPRLPRPRPRPVQDPRP | -0.302
19 | RRIRPRPPRLPRPRPRPAIWPRP | 0.405
20 | RRIRQRPPRLPRPRPRPTQRPRP | 0.548

Row | Sequence | shrunken log2 fold change
21 | RRIRNRPPRLPRPRPRPDPAPRP | 0.172
22 | RRIRYRPPRLPRPRPRPNVMPRP | 0.0307
23 | RRIRKRPPRLPRPRPRPSCTPRP | 0.0868
24 | RRIRHRPPRLPRPRPRPGMSPRP | -0.0653
25 | RRIRGRPPRLPRPRPRPADDPRP | 0.563
26 | RRIRARPPRLPRPRPRPIYFPRP | -0.0784
27 | RRIRNRPPRLPRPRPRPNGDPRP | -0.0698
28 | RRIRCRPPRLPRPRPRPLFCPRP | -0.442
29 | RRIRYRPPRLPRPRPRPWYNPRP | -0.764
30 | RRIRKRPPRLPRPRPRPMWCPRP | -0.113
31 | RRIRLRPPRLPRPRPRPVNKPRP | -0.14
32 | RRIRWRPPRLPRPRPRPCTQPRP | -0.177
33 | RRIRTRPPRLPRPRPRPSMPPRP | -0.363
34 | RRIRERPPRLPRPRPRPDHSPRP | -0.184
35 | RRIRKRPPRLPRPRPRPLSPPRP | 0.615
36 | RRIRGRPPRLPRPRPRPGMQPRP | 1.15
37 | RRIRCRPPRLPRPRPRPGFTPRP | -0.131
38 | RRIRKRPPRLPRPRPRPFNPPRP | -0.0407
39 | RRIRKRPPRLPRPRPRPNNEPRP | 0.0823
40 | RRIRSRPPRLPRPRPRPLKQPRP | -0.0432

Row | Sequence | shrunken log2 fold change
41 | RRIRARPPRLPRPRPRPMYVPRP | -0.0341
42 | RRIRMRPPRLPRPRPRPSEEPRP | 0.0287
43 | RRIRERPPRLPRPRPRPNSGPRP | -0.463
44 | RRIRPRPPRLPRPRPRPQDMPRP | -0.39
45 | RRIRHRPPRLPRPRPRPGPMPRP | 0.247
46 | RRIRPRPPRLPRPRPRPQFIPRP | -0.653
47 | RRIRCRPPRLPRPRPRPKNTPRP | -0.339
48 | RRIRGRPPRLPRPRPRPSPIPRP | 0.411
49 | RRIRIRPPRLPRPRPRPLPYPRP | -0.565
50 | RRIRHRPPRLPRPRPRPTSHPRP | -0.837
51 | RRIRSRPPRLPRPRPRPCRWPRP | 0.0467
52 | RRIRHRPPRLPRPRPRPRTGPRP | -0.111
53 | RRIRARPPRLPRPRPRPMFQPRP | -0.0957
54 | RRIRERPPRLPRPRPRPTNHPRP | -0.472
55 | RRIRHRPPRLPRPRPRPNFDPRP | -0.0783
56 | RRIRNRPPRLPRPRPRPKRRPRP | 0.00183
57 | RRIRDRPPRLPRPRPRPNMNPRP | -0.41
58 | RRIRGRPPRLPRPRPRPLQMPRP | 2.6
59 | RRIRTRPPRLPRPRPRPYTCPRP | -0.0764
60 | RRIRCRPPRLPRPRPRPWQHPRP | -0.256
